Assay [1] deals with FKBP fused to the N terminus of TRF2 ΔB (FKBP-TRF2 ΔB), Myc-tagged.
Assay [2] deals with TRF2 (endogenous in HeLa cells) (human (endogenous in HeLa)) (UniProt Q15554). Kind of assay: proximity ligation; Duolink in situ PLA in fixed HeLa cells with anti-TRF2 and anti-histone H3 antibodies; cells scored for 10 or more signals in nuclei.
Chain of UniProt Q15554 (Q15554 whole entry): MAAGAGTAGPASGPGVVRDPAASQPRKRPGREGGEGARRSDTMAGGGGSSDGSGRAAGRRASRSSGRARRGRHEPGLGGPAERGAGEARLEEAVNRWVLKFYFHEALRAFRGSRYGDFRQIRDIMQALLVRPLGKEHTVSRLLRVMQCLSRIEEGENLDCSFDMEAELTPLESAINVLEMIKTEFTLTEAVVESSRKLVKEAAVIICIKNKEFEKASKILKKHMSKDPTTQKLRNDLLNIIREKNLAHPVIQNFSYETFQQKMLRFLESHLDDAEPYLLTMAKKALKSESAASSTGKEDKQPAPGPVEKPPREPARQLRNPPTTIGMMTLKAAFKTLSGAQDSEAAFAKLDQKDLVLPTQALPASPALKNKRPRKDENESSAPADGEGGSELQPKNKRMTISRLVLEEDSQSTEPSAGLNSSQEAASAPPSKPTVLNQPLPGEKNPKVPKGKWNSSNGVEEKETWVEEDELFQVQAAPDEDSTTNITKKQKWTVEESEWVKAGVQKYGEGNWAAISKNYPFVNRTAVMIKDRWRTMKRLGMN

The substance “FRB fused to the C terminus of histone H2B (H2B-FRB), HA-tagged” registered a generation of t-circles in FKBP-TRF2 ΔB-complemented MEFs expressing H2B-FRB, with A/C dimerizer for 48 h in assay [1] of 50%.
Take “histone H3 (HeLa cells) (from UniProt P68431 1-136) (natural protein)”: the percent of cells with more than 10 positive Duolink signals in assay [2] was 26 % of cells.
